Sequences and labels used below:
B1: mouse Bcl-xLΔC24 (domain or fragment)
chain: MSQSNRELVVDFLSYKLSQKGYSWSQFSDVEENRTEAPEETEAERETPSAINGNPSWHLADSPAVNGATGHSSSLDAREVIPMAAVKQALREAGDEFELRYRRAFSDLTSQLHITPGTAYQSFEQVVNELFRDGVNWGRIVAFFSFGGALCVESVDKEMQVLVSRIASWMATYLNDHLEPWIQENGGWDTFVDLYGNNAAAESRKGQER
B2: loop-deleted human BCL-XL (Δ27–82, ΔC24) (domain or fragment)
chain: MSQSNRELVVDFLSYKLSQKGYSWSQMAAVKQALREAGDEFELRYRRAFSDLTSQLHITPGTAYQSFEQVVNELFRDGVNWGRIVAFFSFGGALCVESVDKEMQVLVSRIAAWMATYLNDHLEPWIQENGGWDTFVELYGNNAAAESRKGQER

Data set [1] addresses BIM BH3 synthetic peptide. The experiment in a line: SPR.
Data set [2] concerns the molecule itself. The experiment in a line: crystal structure.
For data set [3], the target named is B2. The experiment in a line: crystal structure.
For data set [4], the target named is B1. The experiment in a line: SPR.
The target of data set [5] is mouse Bcl-xL Y101F/Q111AΔC24 (mouse, UniProt Q64373-1 1-209, Y101F | Q111A).
Data set [6] concerns the target mouse Bcl-xL Y101FΔC24 (mouse, UniProt Q64373-1 1-209, Y101F).
For data set [7], the target named is human BCL-XLΔC24 (human, UniProt Q07817-1 1-209). The experiment in a line: ELISA.

On to B1, for which, in data set [1], the binding result was “binds”.

For B2, in data set [2], the binding result is reported as “binds”. On to LPLQPSSTMGQVGRQLAIIGDDINRRYDSEFQTM [hBAK BH3 synthetic peptide], for which, in data set [3], the binding result is reported as “binds”.

On to LPLEPNSILGQVGRLLALIGDDINRRYDTEFQNL [mBak Q75L BH3 synthetic peptide], for which the “fold weaker binding than wild-type Bak BH3” value in data set [4] was roughly 7 fold. The binding result in data set [3] is recorded as “binds”.

As for LPLEPNSILGQVGRQLALIGDDINRRYDTEFQNL [mBak BH3 synthetic peptide], the “fold weaker binding than wild-type Bcl-xL” value in data set [5] and in data set [6] was roughly 3.5 fold in each case. PSSTMGQVGRQLAIIEDDINRRYDSE [phage-displayed human BAK BH3 peptide G82E] came in with an IC50 in data set [7] greater than 10 µM.

For PSSTMGQVGRALAIIGDDINRRYDSE [phage-displayed human BAK BH3 peptide Q77A], in data set [7], the “fold reduction in binding against wild-type BAK BH3 (from IC50)” value is 8 fold. The same measure, in the same setting: then PSSTMGQVGAQLAIIGDDINRRYDSE [phage-displayed human BAK BH3 peptide R76A], with 4 fold.

Source of the values: article PMC4888843 (Genes & Development, 2016).
